# Data from IntAct's records for PubMed 28533415.
# B1: Vacuolar protein 8 (Saccharomyces cerevisiae), P39968 (parent)
# chain: MGSCCSCLKDSSDEASVSPIADNEREAVTLLLGYLEDKDQLDFYSGGPLKALTTLVYSDNLNLQRSAALAFAEITEKYVRQVSREVLEPILILLQSQDPQIQVAACAALGNLAVNNENKLLIVEMGGLEPLINQMMGDNVEVQCNAVGCITNLATRDDNKHKIATSGALIPLTKLAKSKHIRVQRNATGALLNMTHSEENRKELVNAGAVPVLVSLLSSTDPDVQYYCTTALSNIAVDEANRKKLAQTEPRLVSKLVSLMDSPSSRVKCQATLALRNLASDTSYQLEIVRAGGLPHLVKLIQSDSIPLVLASVACIRNISIHPLNEGLIVDAGFLKPLVRLLDYKDSEEIQCHAVSTLRNLAASSEKNRKEFFESGAVEKCKELALDSPVSVQSEISACFAILALADVSKLDLLEANILDALIPMTFSQNQEVSGNAAAALANLCSRVNNYTKIIEAWDRPNEGIRGFLIRFLKSDYATFEHIALWTILQLLESHNDKVEDLVKNDDDIINGVRKMADVTFERLQRSGIDVKNPGSNNNPSSNDNNSNNNDTGSEHQPVEDASLELYNITQQILQFLH
# partner: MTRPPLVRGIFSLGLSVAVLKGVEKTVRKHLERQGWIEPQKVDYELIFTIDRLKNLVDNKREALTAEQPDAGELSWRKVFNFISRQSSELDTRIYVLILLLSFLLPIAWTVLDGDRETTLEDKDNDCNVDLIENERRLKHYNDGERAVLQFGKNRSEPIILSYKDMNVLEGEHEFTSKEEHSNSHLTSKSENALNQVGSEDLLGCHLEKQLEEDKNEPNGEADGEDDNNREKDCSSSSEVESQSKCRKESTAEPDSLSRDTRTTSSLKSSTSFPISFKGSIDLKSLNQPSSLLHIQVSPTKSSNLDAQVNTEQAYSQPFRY
# B2: Vacuolar protein 8 (Saccharomyces cerevisiae), P39968 (parent)
# chain: B1 chain
# partner: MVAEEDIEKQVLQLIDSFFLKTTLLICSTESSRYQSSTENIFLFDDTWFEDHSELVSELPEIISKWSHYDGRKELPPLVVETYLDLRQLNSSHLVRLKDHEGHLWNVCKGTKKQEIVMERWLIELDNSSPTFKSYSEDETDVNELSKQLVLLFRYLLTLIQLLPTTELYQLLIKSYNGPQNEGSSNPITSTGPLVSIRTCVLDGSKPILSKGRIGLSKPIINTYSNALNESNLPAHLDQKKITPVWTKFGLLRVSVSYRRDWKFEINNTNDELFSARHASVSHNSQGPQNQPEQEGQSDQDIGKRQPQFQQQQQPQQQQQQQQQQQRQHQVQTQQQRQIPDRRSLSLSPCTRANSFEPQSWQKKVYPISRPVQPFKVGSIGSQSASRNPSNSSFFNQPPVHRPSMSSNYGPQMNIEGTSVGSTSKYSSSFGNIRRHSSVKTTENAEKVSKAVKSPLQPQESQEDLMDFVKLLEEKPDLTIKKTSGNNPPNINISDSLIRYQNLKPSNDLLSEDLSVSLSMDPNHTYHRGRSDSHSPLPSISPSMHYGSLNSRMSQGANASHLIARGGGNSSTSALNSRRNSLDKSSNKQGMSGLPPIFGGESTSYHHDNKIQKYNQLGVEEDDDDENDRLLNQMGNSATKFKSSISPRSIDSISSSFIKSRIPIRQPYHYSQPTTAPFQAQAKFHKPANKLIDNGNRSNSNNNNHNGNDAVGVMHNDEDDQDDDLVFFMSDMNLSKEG
# B3: Vacuolar protein 8 (Saccharomyces cerevisiae), P39968 (parent)
# chain: B1 chain
# partner: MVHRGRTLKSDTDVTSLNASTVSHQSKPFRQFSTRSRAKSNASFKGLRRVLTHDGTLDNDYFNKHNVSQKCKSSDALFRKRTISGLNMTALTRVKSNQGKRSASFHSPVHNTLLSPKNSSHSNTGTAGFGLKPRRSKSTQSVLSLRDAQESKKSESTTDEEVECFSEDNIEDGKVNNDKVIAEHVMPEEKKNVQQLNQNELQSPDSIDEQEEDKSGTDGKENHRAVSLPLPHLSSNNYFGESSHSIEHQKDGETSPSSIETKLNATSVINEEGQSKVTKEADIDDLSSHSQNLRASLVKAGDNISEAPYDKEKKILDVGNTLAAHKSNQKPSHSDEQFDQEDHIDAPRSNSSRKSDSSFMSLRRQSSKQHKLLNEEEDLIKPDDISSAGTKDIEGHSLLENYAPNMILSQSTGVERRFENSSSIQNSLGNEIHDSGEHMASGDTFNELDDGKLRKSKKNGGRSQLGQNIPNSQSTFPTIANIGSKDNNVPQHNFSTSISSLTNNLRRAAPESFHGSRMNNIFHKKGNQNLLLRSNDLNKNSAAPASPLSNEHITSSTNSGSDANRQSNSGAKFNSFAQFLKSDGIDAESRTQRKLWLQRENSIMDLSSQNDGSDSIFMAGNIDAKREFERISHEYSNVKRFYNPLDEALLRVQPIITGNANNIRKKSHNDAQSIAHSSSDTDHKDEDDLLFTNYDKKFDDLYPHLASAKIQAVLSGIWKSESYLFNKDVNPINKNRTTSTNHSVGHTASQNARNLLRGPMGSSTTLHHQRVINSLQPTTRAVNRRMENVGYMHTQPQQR
# B4: Vacuolar protein 8 (Saccharomyces cerevisiae), P39968 (parent)
# chain: B1 chain
# partner: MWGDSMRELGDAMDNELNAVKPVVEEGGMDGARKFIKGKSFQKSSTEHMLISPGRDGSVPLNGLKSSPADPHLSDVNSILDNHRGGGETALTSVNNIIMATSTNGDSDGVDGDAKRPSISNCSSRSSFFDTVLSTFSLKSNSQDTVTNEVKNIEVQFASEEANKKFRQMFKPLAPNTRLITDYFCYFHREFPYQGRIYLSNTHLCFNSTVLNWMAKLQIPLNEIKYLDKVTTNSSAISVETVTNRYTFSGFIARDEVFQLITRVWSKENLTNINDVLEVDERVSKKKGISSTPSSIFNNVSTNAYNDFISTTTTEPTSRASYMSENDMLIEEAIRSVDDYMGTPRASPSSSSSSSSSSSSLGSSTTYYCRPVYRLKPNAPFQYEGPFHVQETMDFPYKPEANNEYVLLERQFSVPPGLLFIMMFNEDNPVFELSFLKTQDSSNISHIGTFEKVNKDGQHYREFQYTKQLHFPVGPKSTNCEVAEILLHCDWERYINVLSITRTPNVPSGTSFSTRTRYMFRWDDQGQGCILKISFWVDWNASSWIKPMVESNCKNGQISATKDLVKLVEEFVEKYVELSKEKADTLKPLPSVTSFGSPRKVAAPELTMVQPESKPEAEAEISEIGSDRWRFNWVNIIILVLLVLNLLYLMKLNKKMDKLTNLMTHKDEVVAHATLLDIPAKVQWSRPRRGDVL
# B5: Vacuolar protein 8 (Saccharomyces cerevisiae), P39968 (parent)
# chain: B1 chain
# partner: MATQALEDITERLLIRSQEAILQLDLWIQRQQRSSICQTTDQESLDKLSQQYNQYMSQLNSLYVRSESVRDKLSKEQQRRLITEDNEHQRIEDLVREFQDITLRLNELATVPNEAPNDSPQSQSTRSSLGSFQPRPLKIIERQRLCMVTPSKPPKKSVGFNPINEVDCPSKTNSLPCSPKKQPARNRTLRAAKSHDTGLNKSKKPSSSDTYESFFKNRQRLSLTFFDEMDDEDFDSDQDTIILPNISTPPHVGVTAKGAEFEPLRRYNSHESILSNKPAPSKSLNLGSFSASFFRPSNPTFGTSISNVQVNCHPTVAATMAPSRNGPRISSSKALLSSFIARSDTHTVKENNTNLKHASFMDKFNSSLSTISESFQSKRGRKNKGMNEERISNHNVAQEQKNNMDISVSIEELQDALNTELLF
# B6: Nucleus-vacuole junction protein 1 (Saccharomyces cerevisiae), P38881 (parent)
# chain: B1 partner
# partner: B1 chain
# Variants of: B1
# Settings: with nvj1_yeast NVJ1, P38881
row,effect of a mutation on the interaction,Variant
1,disrupting interaction strength,A51R
2,disrupting interaction strength,L55R

# Variants of: B1
# Settings: with nvj1_yeast NVJ1, P38881
# Remark: another data set of the same source
row,effect of a mutation on the interaction,Variant
1,disrupting interaction strength,R276E;R317E;R359E

# Variants of: B2
# Settings: with atg13_yeast ATG13, Q06628
row,effect of a mutation on the interaction,Variant
1,disrupting interaction strength,R276E;R317E;R359E

# Variants of: B3
# Settings: with tco89_yeast TCO89, Q08921
row,effect of a mutation on the interaction,Variant
1,with no effect,R276E;R317E;R359E

# Variants of: B4
# Settings: with lam6_yeast LAM6, Q08001
row,effect of a mutation on the interaction,Variant
1,with no effect,R276E;R317E;R359E

# Variants of: B5
# Settings: with vac17_yeast VAC17, P25591
row,effect of a mutation on the interaction,Variant
1,with no effect,R276E;R317E;R359E

# Variants of: B6
# Settings: with vac8_yeast VAC8, P39968
row,effect of a mutation on the interaction,Variant
1,disrupting interaction strength,I295R;A307R;F319E
2,decreasing interaction strength,A307R
3,with no effect,P299S
4,disrupting interaction strength,F319E
5,decreasing interaction strength,I295R
6,decreasing interaction strength,K301E
7,with no effect,S303A
